Measurements reported in patent US20240272170A1 (QUANTUM SI, published 2024).
Where a chain is given by its changes, count along the chain named. Names and notes keep the numbering of the source.

T1: RL peptide (Octet assay of PS621 variants)
T1 construct: RXKLDEESILKQK with X = L
T1 peptide: RLKLDEESILKQK

T2: HA peptide (Octet assay of PS621 variants)
T2 construct: XAKLDEESILKQK with X = H
T2 peptide: HAKLDEESILKQK

T3: KA peptide (Octet assay of PS621 variants)
T3 construct: XAKLDEESILKQK with X = K
T3 peptide: KAKLDEESILKQK

B1: PS1106 (designed binder)
chain: MHSKFSHAGRICGAKFKVGEPIYRCKECSFDDTCVLCVNCFNPKDHTGHHVYVTICTEFNNGICDCGDKEAWNHTLFCKAEEG
notes: Variant of PS621
B2: PS1116 (designed binder)
chain: B1 chain with G48Y, V53T
notes: Variant of PS621
B3: PS1112 (designed binder)
chain: B1 chain with V53T, E70T
notes: Variant of PS621
B4: PS1117 (designed binder)
chain: B1 chain with T47L, V53T
notes: Variant of PS621
B5: PS1122 (designed binder)
chain: B1 chain with T47L, V53T, I63E, E70T
notes: Variant of PS621 (T47L, I63E, E70T)
B6: PS1108 (designed binder)
chain: B1 chain with V53T, F59R
notes: Variant of PS621
B7: PS1109 (designed binder)
chain: B1 chain with V53T, N61K
notes: Variant of PS621
B8: PS1121 (designed binder)
chain: B1 chain with T47K, V53T
notes: Variant of PS621
B9: PS1113 (designed binder)
chain: B1 chain with V53T, H74K
notes: Variant of PS621
B10: PS1114 (designed binder)
chain: B1 chain with T47R, V53T, F59R
notes: Variant of PS621
B11: PS1110 (designed binder)
chain: B1 chain with V53T, I63E
notes: Variant of PS621
B12: PS1111 (designed binder)
chain: B1 chain with V53T, E70S
notes: Variant of PS621
B13: PS557 (other)
chain: MPTAASATESAIEDTPAPARPEVDGRTKPKRQPRYHVVLWNDDDHTYQYVVVMLQSLFGHPPERGYRLAKEVDTQGRVIVLTTTREHAELKRDQIHAFGYDRLLARSKGSMKASIEAEE
notes: Natural parent ClpS protein, expressed in E. coli and purified; also called WT; wild-type protein
B14: PS797 (designed binder)
chain: B13 chain with N41D, V72M, Q75L
notes: Variant of PS557; also called N41D, V72M, Q75L
B15: PS824 (designed binder)
chain: B13 chain with I12F, N41D, Q55R, V72M
notes: Variant of PS557
B16: PS852 (designed binder)
chain: B13 chain with R31H, N41D, Q55R, V72M
notes: Variant of PS557
B17: PS801/PS814 (designed binder)
chain: B13 chain with E63K
notes: also called E63K
B18: PS830 (designed binder)
chain: B13 chain with N41D, P62R, E63K, V72M, Q75L
notes: Variant of PS557
B19: PS828 (designed binder)
chain: B13 chain with N41D, P62R, Q75L
notes: Variant of PS557
B20: PS796 (designed binder)
chain: B13 chain with N41D, V72M
notes: also called N41D, V72M
B21: PS838 (designed binder)
chain: B13 chain with N41D, P62R, V72M
notes: Variant of PS557; also called V72M, N41D, P62R
B22: PS831 (designed binder)
chain: B13 chain with P62R, E63K, V72M, Q75L
notes: Variant of PS557
B23: PS819 (designed binder)
chain: B13 chain with N41D, E63K, V72M
notes: Variant of PS557; also called V72M, N41D, E63K
B24: PS809 (designed binder)
chain: B13 chain with V72M
notes: Variant of PS557; also called V72M
B25: PS808 (designed binder)
chain: B13 chain with Q55R
notes: Variant of PS557; also called Q55R
B26: PS798 (designed binder)
chain: B13 chain with V72M, Q75L
notes: Variant of PS557; also called V72M, Q75L
B27: PS847 (designed binder)
chain: B13 chain with N41D, Q55R, V72M
notes: Variant of PS557

biological target: T4, RA peptide (Octet assay of PS621 variants); experiment: Octet (BLI), 30 C
T4 construct: X… with X = R
Source text: (§1) Peptides of the sequence RXKLDEESILKQK (SEQ ID NO: 1076) were also used to evaluate the penultimate residue effect.

Octet response	Binder
7.6	B1
7.1	B2
8.6	B3
8.6	B4
9.9	B5
8.2	B6
8.2	B7
9.5	B8
7.7	B9
9.2	B10
7	B11
7.9	B12

Biological target: T1, RL peptide (Octet assay of PS621 …)
Experiment: Octet (BLI), 30 C
Source text: as §1

Octet response	Binder
9	B1
8.5	B2
9.9	B3
9	B4
11.2	B5
10.3	B6
10.5	B7
10.6	B8
9.3	B9
9.7	B10
9.8	B11
10	B12

Biological target: T2, HA peptide (Octet assay of PS621 …)
Experiment: Octet (BLI), 30 C

Octet response	Binder
0.6	B1
0.5	B4
1.3	B5
1.2	B6
0.6	B7
2.2	B8
0.2	B9
1.2	B10
2.4	B11

Biological target: T3, KA peptide (Octet assay of PS621 …)
Experiment: Octet (BLI), 30 C

Octet response	Binder
4.7	B1
1.2	B2
2.3	B3
3.5	B4
4.6	B5
5	B6
4.7	B7
5.4	B8
3.8	B9
5.3	B10
6.6	B11
2.7	B12

biological target: T5, AA peptide; experiment: BLI (Octet), peptide on sensor, purified protein in solution
T5 construct: The peptide was coated on the Octet sensor; also called peptide with N-terminal alanine and penultimate alanine
Source text: (§2) In the high-throughput assay, Octet sensors are coated with the peptide of interest and dipped in buffer containing the purified protein. An approximation of relative binding can be obtained by comparing the response after 200 seconds for each protein. Each protein has approximately the same molecular mass and is used at the same concentration, so ranking the proteins by response level in this assay gives an approximation of which proteins have improved binding. Studying the on and off-rate can also give insight into the mechanism of binding.

Octet response after 200 sec association [nm]	Binder
0.01	B13
3.2	B14
3.9	B15
1.7	B16
0.0017	B17
0.215	B18
0.469	B19
3.5	B20
3	B21
1.4	B22
0.519	B23
0.0226	B24
0.0027	B25
3.8	B26
0.288	B27

biological target: T6, VA peptide; experiment: as above
T6 construct: The peptide was coated on the Octet sensor; also called peptide with N-terminal valine and penultimate alanine
Source text: as §2

Octet response after 200 sec association [nm]	Binder
5.9	B13
11.2	B14
13.3	B15
8.3	B16
5.73	B17
6.64	B18
3.24	B19
11.3	B20
11.6	B21
11	B22
7.42	B23
7.77	B24
5.71	B25
12.9	B26
6.68	B27

biological target: T7, LA peptide; experiment: as above
T7 construct: The peptide was coated on the Octet sensor; also called peptide with N-terminal leucine and penultimate alanine
Source text: as §2

Octet response after 200 sec association [nm]	Binder
9.8	B13
12	B14
13.8	B15
9.7	B16
10.7	B17
8.54	B18
7.75	B19
11.9	B20
13.4	B21
12.2	B22
11.1	B23
10.8	B24
10.4	B25
13.9	B26
9.92	B27
